Measurements: PMC7821230

Molecular target: BCL‐xL (UniProt Q07817)
Assay: crystal structure; co-crystals of Affimer and target, solved by molecular replacement with Phaser

stoichiometry N: 2
Substance: BCL‐xL (from UniProt Q07817-1 1-233) (natural protein)
